Reference: patent US20180127478A1

Biological target: GH receptor (on Nb2 cells)
Assay: cell-based or functional assay

Nb2 cell proliferation, EC50: 166 pM
Substance: commercial recombinant hGH (Somatropin, United States Pharmacopeia) (from UniProt P01241 27-217) (ligand)
